Laboratory results: patent US7560106B2, “Rationally designed heparinases derived from heparinase I and II and methods of sequencing therewith” (Massachusetts Institute of Technology, priority 1998, dated 2009)

Tests used:
[1] = Heparin-POROS affinity chromatography; type: binding; details: for NaCl: salt concentration at which enzyme elutes from heparin-POROS column, 10 mM Tris, 1 mM EDTA pH 7.0
Description: Heparin-POROS chromatography: About 30-40 μg of -L r-heparinase I and the various mutant enzymes were injected into a heparin POROS (4.6 mm×100) column (PerSeptive BioSystems, Framingham, Mass.) connected to BioCAD system (PerSeptive BioSystems). Proteins were eluted using a linear gradient of […] NaCl in 10 min (10 mM Tris, 1 mM EDTA pH 7.0) and monitored at 210 nm. EDTA was added to chelate any calcium ions that may be present in the buffers.

[2] = Heparinase I UV 232 nm activity assay as a function of heparin concentration (Kcat, Km); type: biochemical, porcine; details: for Kcat / Km: heparin 0 to 4 mg/ml, 5 mM calcium acetate, pH 7.0; for Kcat: 100 mM MOPS
From the text: Heparinase II Activity Assay. Native heparinase II from Flavobacterium heparinum, was purified as described previously (Godavarti, R., and Sasisekharan, R (1996c) Biochem. Biophys. Res. Comm. 229, 770-777). The UV 232 nm assay to quantify native heparinase II enzymatic activity was similar to that reported for heparinase I (Bernstein, H., Yang, V. C., Cooney, C. L., Langer, R. (1988) Meth. Enzym. 137, 515-29). Briefly, the course of the reaction is monitored by measuring the increase in absorbance at 232 nm as a function of time under saturating substrate concentrations. With heparin as the substrate, the reaction was carried out at a concentration of 4 mg/ml in 50 mM sodium phosphate buffer, pH 7.3. With 2 mg/ml heparan sulfate, the reaction was measured in 50 mM sodium phosphate buffer, pH 6.9 (Sasisekharan, R., Moses, M. A., Nugent, M. A., Cooney, C. L., Langer, R. (1994) Proc. Natl. Acad. Sci., USA 91, 1524-1528). The temperature for all enzymatic activity measurements was kept constant at 35° C.
Heparinase I Activity Assay. The UV 232 nm assay to quantify heparinase I enzymatic activity was similar to that described in Example 1. With heparin as the substrate, the reaction was carried out at a concentration of 4 mg/ml in 100 mM MOPS, 5 mM calcium acetate, pH 7.0. The temperature for all enzymatic activity measurements was kept constant at 30° C. For the inactivation kinetic profiles, activity was measured as outlined above at precise time points.
(§1) Heparinase I Activity Assays: The UV 232 nm assay was used as described in Example 1. When measuring the enzyme activity as a function of heparin concentration, heparin concentrations varied from 0 to 4 mg/ml at a fixed calcium concentration of 5 mM (100 mM MOPS buffer/5 mM calcium acetate, pH 7.0). The data was then fit to an non-linear equation to determine Kcat and Km of heparinases I. Heparinase mutant activity was also investigated as a function of calcium concentration ranging from 0 to 10 mM. […] Activity is expressed as IU-μmol product formed/min using ∈=−3800-M^−1CM^−1.

[3] = Heparinase I activity as a function of calcium concentration (K0.5, calcium dependence); type: biochemical
Description: as §1

[4] = calcium concentration at which half of the maximum enzyme activity was observed, calcium 0 to 10 mM, Table 4 first K0.5 column

| Molecule | NaCl [1] [mM] | Kcat [2] [s⁻¹] | Km [2] [µM] | K0.5 ([3]; Table 4 second K0.5 column) [µM] | K0.5 [3, 4] [µM] | decrease in Kcat compared to wild-type r-heparinase I [2] | elution salt concentration / heparin binding relative to wild-type r-heparinase I, in words [1] |
| --- | --- | --- | --- | --- | --- | --- | --- |
| D210A: heparinase I CB-1 mutant, aspartate 210 changed to alanine (protein, UniProt Q05819 22-384, looked up, variant D210A) Heparin lyase I: QQKKSGNIPYRVNVQADSAKQKAIIDNKWVAVGINKPYALQYDDKLRFNGKPSYRFELKAEDNSLEGYAAGETKGRTELSYSYATTNDFKKFPPSVYQNAQKLKTVYHYGKGICEQGSSRSYTFSVYIPSSFPDNATTIFAQWHGAPSRTLVATPEGEIKTLSIEEFLALYDRMIFKKNIAHDKVEKKAKDGKITYVAGKPNGWKVEQGGYPTLAFGFSKGYFYIKANSDRQWLTDKADRNNANPENSEVMKPYSSEYKTSTIAYKMPFAQFPKDCWITFDVAIDWTKYGKEANTILKPGKLDVMMTYTKNKKPQKAHIVNQQEILIGRNDDDGYYFKFGIYRVGNSTVPVTYNLSGYSETAR | 500 | 74 | 2.64 | 310 | 310 | – | – |
| G213A/T216A: heparinase I CB-1 double mutant (protein, UniProt Q05819 22-384, looked up, variant G213A T216A) Heparin lyase I: QQKKSGNIPYRVNVQADSAKQKAIIDNKWVAVGINKPYALQYDDKLRFNGKPSYRFELKAEDNSLEGYAAGETKGRTELSYSYATTNDFKKFPPSVYQNAQKLKTVYHYGKGICEQGSSRSYTFSVYIPSSFPDNATTIFAQWHGAPSRTLVATPEGEIKTLSIEEFLALYDRMIFKKNIAHDKVEKKDKDAKIAYVAGKPNGWKVEQGGYPTLAFGFSKGYFYIKANSDRQWLTDKADRNNANPENSEVMKPYSSEYKTSTIAYKMPFAQFPKDCWITFDVAIDWTKYGKEANTILKPGKLDVMMTYTKNKKPQKAHIVNQQEILIGRNDDDGYYFKFGIYRVGNSTVPVTYNLSGYSETAR | 498 | 19 | 0.83 | 2200 | 2200 | 5 fold | – |
| D210A/D212A: heparinase I CB-1 double mutant (protein, UniProt Q05819 22-384, looked up, variant D210A D212A) Heparin lyase I: QQKKSGNIPYRVNVQADSAKQKAIIDNKWVAVGINKPYALQYDDKLRFNGKPSYRFELKAEDNSLEGYAAGETKGRTELSYSYATTNDFKKFPPSVYQNAQKLKTVYHYGKGICEQGSSRSYTFSVYIPSSFPDNATTIFAQWHGAPSRTLVATPEGEIKTLSIEEFLALYDRMIFKKNIAHDKVEKKAKAGKITYVAGKPNGWKVEQGGYPTLAFGFSKGYFYIKANSDRQWLTDKADRNNANPENSEVMKPYSSEYKTSTIAYKMPFAQFPKDCWITFDVAIDWTKYGKEANTILKPGKLDVMMTYTKNKKPQKAHIVNQQEILIGRNDDDGYYFKFGIYRVGNSTVPVTYNLSGYSETAR | 515 | 21 | 0.32 | 700 | 700 | 4.5 fold | – |
| G213A: heparinase I CB-1 mutant, glycine 213 changed to alanine (protein, UniProt Q05819 22-384, looked up, variant G213A) Heparin lyase I: QQKKSGNIPYRVNVQADSAKQKAIIDNKWVAVGINKPYALQYDDKLRFNGKPSYRFELKAEDNSLEGYAAGETKGRTELSYSYATTNDFKKFPPSVYQNAQKLKTVYHYGKGICEQGSSRSYTFSVYIPSSFPDNATTIFAQWHGAPSRTLVATPEGEIKTLSIEEFLALYDRMIFKKNIAHDKVEKKDKDAKITYVAGKPNGWKVEQGGYPTLAFGFSKGYFYIKANSDRQWLTDKADRNNANPENSEVMKPYSSEYKTSTIAYKMPFAQFPKDCWITFDVAIDWTKYGKEANTILKPGKLDVMMTYTKNKKPQKAHIVNQQEILIGRNDDDGYYFKFGIYRVGNSTVPVTYNLSGYSETAR | 476 | 28 | 0.97 | 740 | 740 | about 3 fold | – |
| Y379A: heparinase I CB-2 mutant, tyrosine 379 changed to alanine (protein, UniProt Q05819 22-384, looked up, variant Y379A) Heparin lyase I: QQKKSGNIPYRVNVQADSAKQKAIIDNKWVAVGINKPYALQYDDKLRFNGKPSYRFELKAEDNSLEGYAAGETKGRTELSYSYATTNDFKKFPPSVYQNAQKLKTVYHYGKGICEQGSSRSYTFSVYIPSSFPDNATTIFAQWHGAPSRTLVATPEGEIKTLSIEEFLALYDRMIFKKNIAHDKVEKKDKDGKITYVAGKPNGWKVEQGGYPTLAFGFSKGYFYIKANSDRQWLTDKADRNNANPENSEVMKPYSSEYKTSTIAYKMPFAQFPKDCWITFDVAIDWTKYGKEANTILKPGKLDVMMTYTKNKKPQKAHIVNQQEILIGRNDDDGYYFKFGIYRVGNSTVPVTYNLSGASETAR | 489 | 9 | 0.32 | 230 | 230 | about 10 fold | comparable to wild-type r-heparinase I |
| T216A: heparinase I CB-1 mutant, threonine 216 changed to alanine (protein, UniProt Q05819 22-384, looked up, variant T216A) Heparin lyase I: QQKKSGNIPYRVNVQADSAKQKAIIDNKWVAVGINKPYALQYDDKLRFNGKPSYRFELKAEDNSLEGYAAGETKGRTELSYSYATTNDFKKFPPSVYQNAQKLKTVYHYGKGICEQGSSRSYTFSVYIPSSFPDNATTIFAQWHGAPSRTLVATPEGEIKTLSIEEFLALYDRMIFKKNIAHDKVEKKDKDGKIAYVAGKPNGWKVEQGGYPTLAFGFSKGYFYIKANSDRQWLTDKADRNNANPENSEVMKPYSSEYKTSTIAYKMPFAQFPKDCWITFDVAIDWTKYGKEANTILKPGKLDVMMTYTKNKKPQKAHIVNQQEILIGRNDDDGYYFKFGIYRVGNSTVPVTYNLSGYSETAR | 479 | 50 | 1.45 | 430 | 430 | ~2 fold | – |
| D212A: heparinase I CB-1 mutant, aspartate 212 changed to alanine (protein, UniProt Q05819 22-384, looked up, variant D212A) Heparin lyase I: QQKKSGNIPYRVNVQADSAKQKAIIDNKWVAVGINKPYALQYDDKLRFNGKPSYRFELKAEDNSLEGYAAGETKGRTELSYSYATTNDFKKFPPSVYQNAQKLKTVYHYGKGICEQGSSRSYTFSVYIPSSFPDNATTIFAQWHGAPSRTLVATPEGEIKTLSIEEFLALYDRMIFKKNIAHDKVEKKDKAGKITYVAGKPNGWKVEQGGYPTLAFGFSKGYFYIKANSDRQWLTDKADRNNANPENSEVMKPYSSEYKTSTIAYKMPFAQFPKDCWITFDVAIDWTKYGKEANTILKPGKLDVMMTYTKNKKPQKAHIVNQQEILIGRNDDDGYYFKFGIYRVGNSTVPVTYNLSGYSETAR | 498 | 65 | 1.94 | 370 | 370 | – | – |
